We go through 2 substances from patent publication US11236354B2, “Glyphosate-n-acetyltransferase (GLYAT) sequences and methods of use” (PIONEER HI-BRED INTERNATIONAL, INC., priority 2013, dated 2022).

Data set [1] concerns O=C(O)CNCP(=O)(O)O. The data set can be described thus: Substrate saturation kinetic analysis of purified GLYAT. Type of data set: biochemical. Conditions: other: SEQ ID NO:26, pH 7.0, non-varied substrate saturating, 37.0 °C. How it is done: (§1) E. coli cultures in LB or 2×YT were grown overnight at 37° C. to saturation. The cells were used as a 2% inoculum into fresh media. When OD reached 0.6, IPTG was added to 0.2 mM and growth was continued for at least 6 hours. Cells were harvested by centrifugation and stored at −80° C. Cells were lysed with BPER (Pierce) containing 1 mM dithiothreitol, 0.2 mg/ml lysozyme, 2 mg/ml protease inhibitor cocktail (Sigma bacterial cell cocktail, P8465) and endonuclease. Lysate supernatants were passed through a column of NHS-activated Agarose (Thermo, #26197) derivatized with coenzyme A. Columns were washed with 25 mM Hepes, pH 7, containing progressively higher concentrations of KCl, then eluted with 25 mM Hepes, 100 mM KCl, 10% ethylene glycol and 1 mM acetyl CoA. Purity as evaluated by polyacrylamide gel electrophoresis was deemed consistently high enough to be assumed to be 100%. Protein concentration was determined with the Bradford assay using a large-scale lot of produced GLYAT protein as standard.
(§2) Kinetic parameters for various substrates were obtained using a range of seven substrate concentrations plus a blank containing none of the varied substrate. The non-varied substrate was present at a saturating concentration. Six-microliter aliquots of 50-fold concentrated stock solutions of the varied substrate were placed in a 96-well assay plate (Greiner BioOne UV-Star). Reactions were started with the addition of 294 ul of 25 mM Hepes, pH 7.0, 100 mM KCL, 10% ethylene glycol, the non-varied substrate and 10 to 200 nM enzyme. Absorbance was monitored for one minute with a Spectramax 384 Plus plate reader (Molecular Devices). If the amino acid present at position 30 (29 if alanine is absent at position 2) was cysteine, absorbance was monitored at 235 nm, which directly detects cleavage of the sulfoester bond of acetyl CoA. If the amino acid present at position 30 (29 if alanine is absent at position 2) was isoleucine, 0.5 mM 5,5′-dithiobis-(2-nitrobenzoic acid), which reacts with the coenzyme A thiol generated in the enzyme catalyzed reaction, was included in the reaction mix and absorbance was monitored at 412 nm. Initial rates were processed by the Softmax software to obtain kinetic parameters, using the double-reciprocal transformation.
The sequences with the new substitutions were derived through a combination of saturation mutagenesis of an already fit protein (SEQ ID NO:26) and an effective screening cascade as a means of identifying the improved genes (Examples 1-2). Regions in which novel changes are concentrated include helix H2a (positions 23 and 25-29) and the hairpin formed by strands B6 and B7 (positions 124-144). These two structures are components of the amino substrate binding site. Helix H3, the backbone to which the central beta sheet is anchored, is a region where 24% of the novel substitutions (17 out of 71) disclosed in Table 4 are concentrated into 11% of the positions (16 out of 146). None of those are near enough to the active site to influence substrate specificity directly. In three cases, multiple novel substitutions were discovered immediately or nearly adjacent to conserved amino acids shown previously to contribute to the catalytic mechanism (Siehl D L et. al., J Biol Chem, 282:11446, 2007). The catalytic amino acids for which this is the case are R21, R111, H138 and the nearby positions with multiple substitutions are 23, 112 and 137. The diverse amino acids at these positions may influence the orientation of the neighboring catalytic amino acids so as to selectively optimize catalysis with the preferred substrate, glyphosate.

Data set [2] deals with O=C(O)CNCP(=O)(O)O. Described as above. The format is biochemical. Particulars: other: SEQ ID NO:7, pH 7.0, non-varied substrate saturating, 37.0 °C. How it is done:
as §1
as §2, with “Reactions were started with the addition of 294 ul of 25 mM Hepes, pH 7.0, 100 mM KCL, 10% ethylene glycol, the non-varied substrate and 10 to 200 nM enzyme.” left out, “Initial rates were processed by the Softmax software to obtain kinetic parameters, using the double-reciprocal transformation.” left out

Turning to “GLYAT (glyphosate-N-acetyltransferase), parent of saturation mutagenesis (already fit protein), SEQ ID NO:26 (derived from SEQ ID NO:1 and 2) (Bacillus licheniformis DSM 13 = ATCC 14580; A28V/C29I/D131E/E14D/E65Q/E67K/E68K/E83D/G37R/I132T/I135A/I15L/I19V/I53V/I91V/K101R/K144R/K58Q/L105M/L26I/L97I/M75V/R47G/R92K/T89S/V114A/Y130F/Y45F)”, in the data set with O=C(O)CNCP(=O)(O)O [1], the Km was 220 µM, the kcat came out at 9.33 s⁻¹ and the kcat/Km turned out to be 41750 M⁻¹ s⁻¹.

As to “GLYAT variant SEQ ID NO:7 (derived from SEQ ID NO:1 and 2) (Bacillus licheniformis DSM 13 = ATCC 14580; A28V/D131E/E119K/E14D/E65Q/E67K/E68K/E79G/E83D/G37R/G38S/G48A/I132L/I135A/I15L/I19V/I2L/I53V/I91V/K101R/K144R/K58Q/L105M/L106I/L26I/L36T/L97I/M75V/N109F/R47G/R92K/T33S/T89S/V114A/Y130F/Y31W/Y45F)”, in the data set on O=C(O)CNCP(=O)(O)O [2], the Km came out at 800 µM, the kcat turned out to be 7.13 s⁻¹ and the kcat/Km was found to be 8870 M⁻¹ s⁻¹.

By Km is commonly meant the substrate concentration at which the rate is half of its maximum. The kcat is the maximal rate divided by the concentration of active sites. For orientation: kcat/Km means the turnover number divided by the Michaelis constant.
